Assay results published in patent US20220323561A1 (ENTEROME S A, published 2022).

Columns and labels:
[1] = molecular target: T1, HLA-A*0201 molecule expressed on human T2 cells (human); experiment: T2 cells (HLA-A*0201), peptide at 1 µM, anti-HLA-A2 flow cytometry
T1 construct: also called HLA-A2
Protocol: (§1) T2 cells (5.104 cells per well) are incubated with decreasing concentrations of peptides from 100 μM to 0.1 μM (4 points: 100 μM, 10 μM, 1 μM, 0.1 μM) in serum-free medium (TexMacs) supplemented with […] of β2 Microglobulin at 37° C. for 16 hours. Cells are then washed two times and marked with the anti-HLA-A2 antibody coupled to PE (clone BB7.2, BD Pharmagen).
(§2) The relative affinity is then determined as follows: […]

[2] = molecular target: T1, HLA-A*0201 molecule expressed on human …; experiment: T2 cells (HLA-A*0201), peptide titration, anti-HLA-A2 flow cytometry
Protocol: as §1, §2

[3] = molecular target: T1, HLA-A*0201 molecule expressed on human …; experiment: T2 cells (HLA-A*0201), peptide at 100 µM, anti-HLA-A2 flow cytometry
Protocol: as §1, §2

[4] = molecular target: T1, HLA-A*0201 molecule expressed on human …; experiment: T2 cells (HLA-A*0201), peptide at 0.1 µM, anti-HLA-A2 flow cytometry
Protocol: as §1, §2

[5] = molecular target: T1, HLA-A*0201 molecule expressed on human …; experiment: T2 cells (HLA-A*0201), peptide at 10 µM, anti-HLA-A2 flow cytometry
Protocol: as §1, §2

| Binder | mean relative fluorescence intensity (HIV peptide = 100) [1] | concentration of peptide that induces 20% of HLA-A2 expression [2] | in vitro binding affinity (relative to HIV pol reference peptide) [2] | mean relative fluorescence intensity (HIV peptide = 100) [3] | mean relative fluorescence intensity (HIV peptide = 100) [4] | mean relative fluorescence intensity (HIV peptide = 100) [5] |
| --- | --- | --- | --- | --- | --- | --- |
| FMPGLLFGA [TNFRSF13C-B33] | 1.3 % of HIV pol 589-597 at 100 µM | 13.2 µM | 3.5 ratio to HIV pol 589-597 | 99.6 % of HIV pol 589-597 at 100 µM | 0 % of HIV pol 589-597 at 100 µM | 15.5 % of HIV pol 589-597 at 100 µM |
| FLAFVPLQL (also called CD37-B1i) [CD37-B1] | 35 % of HIV pol 589-597 at 100 µM | 0.65 µM | 1.6 ratio to HIV pol 589-597 | 157 % of HIV pol 589-597 at 100 µM | 5 % of HIV pol 589-597 at 100 µM | 106 % of HIV pol 589-597 at 100 µM |
| ILNSLSLLL [MS4A1-B41] |  | 2.45 µM | 0.3 ratio to HIV pol 589-597 |  |  |  |
| FLLFLTPME [CD19-H2] | 3 % of HIV pol 589-597 at 100 µM |  |  | 7 % of HIV pol 589-597 at 100 µM |  | 7 % of HIV pol 589-597 at 100 µM |
| YVFEHPELL [CD22-B11] | 60.5 % of HIV pol 589-597 at 100 µM | 0.2 µM | 0.5 ratio to HIV pol 589-597 | 141 % of HIV pol 589-597 at 100 µM | 6.4 % of HIV pol 589-597 at 100 µM | 124 % of HIV pol 589-597 at 100 µM |
| YLFLGILSL [MS4A1-B5] | 0.2 % of HIV pol 589-597 at 100 µM | 6.77 µM | 0.7 ratio to HIV pol 589-597 |  | 0 % of HIV pol 589-597 at 100 µM | 29.8 % of HIV pol 589-597 at 100 µM |
| PLPGLLFGA [TNFRSF13C-H3] | 0 % of HIV pol 589-597 at 100 µM |  |  | 8.4 % of HIV pol 589-597 at 100 µM | 0 % of HIV pol 589-597 at 100 µM | 0 % of HIV pol 589-597 at 100 µM |
| LMFGAPALV [TNFRSF13C-B1] | 7 % of HIV pol 589-597 at 100 µM | 4.35 µM | 1.1 ratio to HIV pol 589-597 | 90 % of HIV pol 589-597 at 100 µM | 1 % of HIV pol 589-597 at 100 µM | 37 % of HIV pol 589-597 at 100 µM |
| TLLFLTPML [CD19-B2] | 41 % of HIV pol 589-597 at 100 µM | 0.38 µM | 1 ratio to HIV pol 589-597 |  | 12 % of HIV pol 589-597 at 100 µM | 114 % of HIV pol 589-597 at 100 µM |
| LLFGAPALL (also called TNFRSF13-H1) [TNFRSF13C-H1] | 2 % of HIV pol 589-597 at 100 µM | 11.8 µM | 3 ratio to HIV pol 589-597 | 92 % of HIV pol 589-597 at 100 µM | 0 % of HIV pol 589-597 at 100 µM | 17 % of HIV pol 589-597 at 100 µM |
| GLAFVPLQI [CD37-H1] | 0 % of HIV pol 589-597 at 100 µM | 7.35 µM | 17.5 ratio to HIV pol 589-597 | 153 % of HIV pol 589-597 at 100 µM | 2 % of HIV pol 589-597 at 100 µM | 27 % of HIV pol 589-597 at 100 µM |
| LQMGGFYLL [CD19-B7] | 4.8 % of HIV pol 589-597 at 100 µM | 49.6 µM | 6.8 ratio to HIV pol 589-597 | 31.8 % of HIV pol 589-597 at 100 µM | 6 % of HIV pol 589-597 at 100 µM | 4.5 % of HIV pol 589-597 at 100 µM |
| IMNSLSLFA [MS4A1-H4] | 0.3 % of HIV pol 589-597 at 100 µM |  |  | 13.4 % of HIV pol 589-597 at 100 µM | 0 % of HIV pol 589-597 at 100 µM | 2.6 % of HIV pol 589-597 at 100 µM |
| SLVGILHLQ [CD19-H1] | 0 % of HIV pol 589-597 at 100 µM |  |  | 0 % of HIV pol 589-597 at 100 µM | 1 % of HIV pol 589-597 at 100 µM | 1 % of HIV pol 589-597 at 100 µM |
| GMAFVPLLL (also called CD37-B11i) [CD37-B11] | 1.6 % of HIV pol 589-597 at 100 µM | 2.3 µM | 3 ratio to HIV pol 589-597 | 57.8 % of HIV pol 589-597 at 100 µM | 0 % of HIV pol 589-597 at 100 µM | 48.9 % of HIV pol 589-597 at 100 µM |
| LLVGILHLV [CD19-B1] | 8 % of HIV pol 589-597 at 100 µM | 3.7 µM | 0.7 ratio to HIV pol 589-597 | 93 % of HIV pol 589-597 at 100 µM |  | 40 % of HIV pol 589-597 at 100 µM |
| YLAYLIFEL [CD19-B6] | 5.4 % of HIV pol 589-597 at 100 µM | 3.76 µM | 0.4 ratio to HIV pol 589-597 |  | 0 % of HIV pol 589-597 at 100 µM | 52.5 % of HIV pol 589-597 at 100 µM |
| WVFEHPETL [CD22-H1] | 10 % of HIV pol 589-597 at 100 µM | 1.97 µM | 5.3 ratio to HIV pol 589-597 | 158 % of HIV pol 589-597 at 100 µM | 2 % of HIV pol 589-597 at 100 µM | 71 % of HIV pol 589-597 at 100 µM |
| ILPGLLFGL [TNFRSF13C-B31] | 1.5 % of HIV pol 589-597 at 100 µM | 1.6 µM | 0.4 ratio to HIV pol 589-597 | 104 % of HIV pol 589-597 at 100 µM | 0 % of HIV pol 589-597 at 100 µM | 71.9 % of HIV pol 589-597 at 100 µM |
| IALGGLLMI [MS4A1-H1] | 0.7 % of HIV pol 589-597 at 100 µM |  |  |  | 0 % of HIV pol 589-597 at 100 µM | 1.9 % of HIV pol 589-597 at 100 µM |
| TLAYLIFCL [CD19-H6] | 4.1 % of HIV pol 589-597 at 100 µM | 4.98 µM | 0.5 ratio to HIV pol 589-597 |  | 0 % of HIV pol 589-597 at 100 µM | 39.6 % of HIV pol 589-597 at 100 µM |
| SLVGILHII [CD19-B11] | 5.2 % of HIV pol 589-597 at 100 µM | 5.97 µM | 0.8 ratio to HIV pol 589-597 | 108 % of HIV pol 589-597 at 100 µM | 0 % of HIV pol 589-597 at 100 µM | 30.5 % of HIV pol 589-597 at 100 µM |
